Results reported in publication PMC11172311, “Structural and Interactional Analysis of the Flavonoid Pathway Proteins: Chalcone Synthase, Chalcone Isomerase and Chalcone Isomerase-like Protein” (International Journal of Molecular Sciences, 2024).

Columns and labels:
[1] = substrate: O=C(/C=C/c1ccc(O)cc1)c1c(O)cc(O)cc1O; experiment: steady-state kinetics (Km); format: biochemical, Sorghum bicolor
[2] = substrate: O=C(/C=C/c1ccc(O)cc1)c1ccc(O)cc1O; experiment: steady-state kinetics (Km); format: biochemical, Sorghum bicolor
[3] = substrate: CC(C)(COP(=O)(O)OP(=O)(O)OC[C@H]1O[C@@H](n2cnc3c(N)ncnc32)[C@H](O)[C@@H]1OP(=O)(O)O)[C@@H](O)C(=O)NCCC(=O)NCCSC(=O)/C=C/c1ccc(O)cc1; experiment: steady-state kinetics, LC-MS/MS (Km); format: biochemical, Panicum virgatum; settings: malonyl-CoA (co-substrate)
[4] = substrate: O=C(/C=C/c1ccc(O)cc1)c1c(O)cc(O)cc1O; experiment: purified protein; format: biochemical, Panicum virgatum

B1: SbCHI (chalcone isomerase, Bmr30) (Sorghum bicolor) (protein)
chain: MAVPEVVVEGVVFPPVARPPGSAGSHFLGGAGVRGIEIGGNFIKFTAIGVYLEDAAVSALAKKWAGKTADELASDAAFFRDVVTGDFEKFTRVTMLLPLTGEQYAGKVTENCVAFWKAVGLYTDAEGVAVEKFKEAFKPETFPPGASILFTHSSTGVLTVAFSKDSSVPASGGVAIENKHLCEAVLESIIGEHGVSPAAKLSLAARVSELLTKGTAGAADAPQAEPVSVTA
notes: recombinant SbCHI
- Km [1]: 16.55 ± 2.08 µM
- kcat [1]: 2890 ± 144 s⁻¹
- kcat/Km [1]: 1.74e+08 M⁻¹ s⁻¹
- Km [2]: 1.585 ± 0.929 µM
- kcat [2]: 0.239 ± 0.0274 s⁻¹
- kcat/Km [2]: 151000 M⁻¹ s⁻¹

B2: PvCHS (chalcone synthase) (Panicum virgatum) (protein)
chain: MAGAAAAVTVEEVRKAQRASGPATVLAIGTATPANCVHQADYPDYYFRVTKSDHLTDLKEKFKRMCDKSMIRKRYMHLTEEFLAENPNMCAYMAPSLDARQDIVVVEVPKLGKAAAQKALKEWGQPRSRITHLVFCTTSGVDMPGADYQLTKLLGLRPSVNRLMMYQQGCFAGGTVLRVAKDLAENNRGARVLVVCSEITAVTFRGPSESHLDSLVGQALFGDGAAAVIVGADPDERAERPLFQLVSAAQTLLPDSEGAIDGHLREVGLTFHLLKDVPGLISKNIERALEAAFAPLGISDWNSIFWVAHPGGPAILDQVEAKVSLDKARMRATRHVLAEYGNMSSACVLFILDEMRKRSAEDGCATTGEGLDWGVLFGFGPGLTVETVVLHSVPITAGAAAA
notes: recombinant, N-terminal 6×-His tag
- Km [3]: 0.1303 ± 0.0319 µM
- kcat [3]: 0.00695 ± 0.00077 s⁻¹
- kcat/Km [3]: 53300 M⁻¹ s⁻¹

B3: PvCHI (chalcone isomerase) (Panicum virgatum) (protein)
chain: MAAVSEVAVDGVVFPPVARPPGSGRSHFLAGAGVRGMEIGGNFIKFTAIGVYLEEGAAVSALAKKWAGKSADELAADAAFFRDVVTGDFEKFTRVTMILPLTGEQYSGKVTENCVAYWKAVGVYTDAEGAAVDKFKEAFKPETFPPGASILFTHSPAGVLTVAFSKDSSVPESGGVAIDNKPLCEAVLESIIGEHGVSPAAKLSVAARVSELLKEASPAGGAPQAAAEPAVPVSA
notes: as for B2
- Km [4]: 16.04 ± 6.28 µM
- kcat [4]: 8010 ± 1180 s⁻¹
- kcat/Km [4]: 5e+08 M⁻¹ s⁻¹
